Experimental data: PMC12403594, “On the self-assembly of αB-crystallin” (Soft Matter, 2025)

Tests used:
[1] = molecular target: the molecule itself; experiment: static light scattering; day 7 after sample preparation; 10-69 μM αBC; 20 mM sodium phosphate, 0.2 mM EDTA, 0.02% NaN3, pH 8.0; 25 °C; aggregation number from the slope of the excess Rayleigh ratio at q = 0 against concentration
[2] = molecular target: the molecule itself; experiment: static light scattering; day 0 (day of thawing and dilution); 10-69 μM αBC; 20 mM sodium phosphate, 0.2 mM EDTA, 0.02% NaN3, pH 8.0; 25 °C; aggregation number from the slope of the excess Rayleigh ratio at q = 0 against concentration

B1: Recombinant human αB-crystallin (natural protein)
chain: MDIAIHHPWIRRPFFPFHSPSRLFDQFFGEHLLESDLFPTSTSLSPFYLRPPSFLRAPSWFDTGLSEMRLEKDRFSVNLDVKHFSPEELKVKVLGDVIEVHGKHEERQDEHGFISREFHRKYRIPADVDPLTITSSLSSDGVLTVNGPRKQVSGPERTIPITREEKPAVTAAPKK
notes: αB-crystallin, human; expressed from a synthetic gene with E. coli-optimized codons in a Pet3a vector; No tag is mentioned; The introduction gives 175 residues for the protein
Question: Which “stoichiometry N” value [1] does the source give for B1 here?
Answer: The value was 19.

Question: What about the “stoichiometry N” value [2] of the same protein?
Answer: Its value is 24.
